Numbered stars: 1 amine (or outer) side, 2 acyl side, 3 side chain; on linkers, the order of the positions; unused ones are H or OH. Square brackets hold non-standard residues; d marks the D form. Ends that are not written are not given here. βAsp = O=C(O)[C@H](CC(=O)[*:2])N[*:1]
B1: α-COMP peptide (non-isomerised (α) form of the COMP peptide) (peptide)
peptide: AQEDSDH
B2: β-COMP peptide (synthetic peptide derived from human cartilage oligomeric matrix protein containing an isomerised Asp residue, AQEDβSDH) (peptide)
peptide: AQE[βAsp]SDH

Target: mouse-anti-β-COMP sera (polyclonal antiserum specific for the human COMP derived sequence AQEDβSDH)
Test: competitive ELISA: free peptide competes with biotinylated β-COMP on streptavidin plates for the mouse anti-β-COMP serum

Row | Binder | IC50 [µg/mL]
1 | B1 | 0.435
2 | B2 | 0.038

From US20040259172A1
